Reference: patent US20230220042A1 (SHANGHAI JIAO TONG UNIVERSITY SCHOOL OF MEDICINE, published 2023)
Changes are numbered by the printed parent chain. Names and notes keep the numbering of the source.

How the values were obtained:
[1] = molecular target: Biotin-FcγRIIB (human FcγRIIB, Sino Biological) (human) (UniProt P31994); test: NGS after FACS sort of 3T3-displayed LibraryMix for biotin-FcγRIIB binding
Biotin-FcγRIIB (human) [2] = molecular target: Biotin-FcγRIIB (human) (UniProt P31994); test: magnetic sorting on biotin-FcγRIIB with unlabelled activating FcγRs, NGS; Library2
Biotin-FcγRIIB (human) [3] = molecular target: Biotin-FcγRIIB (human) (UniProt P31994); test: magnetic sorting on biotin-FcγRIIB with unlabelled activating FcγRs, NGS; Library4
Biotin-FcγRIIB (human) [4] = molecular target: Biotin-FcγRIIB (human) (UniProt P31994); test: magnetic sorting on biotin-FcγRIIB with unlabelled activating FcγRs, NGS; LibraryMix #3
Biotin-FcγRIIB (human) [5] = molecular target: Biotin-FcγRIIB (human) (UniProt P31994); test: magnetic sorting on biotin-FcγRIIB with unlabelled activating FcγRs, NGS; LibraryMix #4
Biotin-FcγRIIB (human) [6] = molecular target: Biotin-FcγRIIB (human) (UniProt P31994); test: sorting of displayed Fc library on FcγRIIB, NGS
Biotin-FcγRIIB (human) [7] = molecular target: Biotin-FcγRIIB (human) (UniProt P31994); test: NGS of 3T3 display library C2 flow-sorted for FcγRIIB binding
Biotin-FcγRIIB (human) [8] = molecular target: Biotin-FcγRIIB (human) (UniProt P31994); test: NGS of 3T3 display library Cmix flow-sorted for FcγRIIB binding
Biotin-FcγRIIB (human) [9] = molecular target: Biotin-FcγRIIB (human) (UniProt P31994); test: NGS of 3T3 display library IgG2_C01 flow-sorted for FcγRIIB binding
Biotin-FcγRIIB (human) [10] = molecular target: Biotin-FcγRIIB (human) (UniProt P31994); test: NGS of 3T3 display library IgG2_C02 flow-sorted for FcγRIIB binding
Biotin-FcγRIIB (human) [11] = molecular target: Biotin-FcγRIIB (human) (UniProt P31994); test: FACS sorting of displayed Fc library on biotin-FcγRIIB, NGS
Biotin-FcγRIIB (human) [12] = molecular target: Biotin-FcγRIIB (human) (UniProt P31994); test: FACS sorting of displayed Fc library on biotin-FcγRIIB, NGS; reference G236V
Biotin-FcγRIIB (human) [13] = molecular target: Biotin-FcγRIIB (human) (UniProt P31994); test: FACS sorting of displayed Fc library on biotin-FcγRIIB, NGS; reference P271G
Biotin-FcγRIIB [14] = molecular target: T1, Biotin-FcγRIIB (human, UniProt P31994 43-217, limits assumed, biotin-labelled); test: FACS sorting of displayed Fc library on biotin-FcγRIIB, NGS
T1 construct: Bought, biotin-labelled; used at 1 µg/ml for staining and sorting; also called human FcγRIIB; CD32b
T1 sequence (looked up): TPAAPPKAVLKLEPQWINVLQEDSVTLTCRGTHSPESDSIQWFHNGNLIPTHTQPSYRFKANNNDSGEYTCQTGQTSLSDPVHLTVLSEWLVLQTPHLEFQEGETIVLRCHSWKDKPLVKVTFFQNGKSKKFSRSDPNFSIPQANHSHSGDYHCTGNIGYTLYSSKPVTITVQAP

Biotin-FcγRIIB [15] = molecular target: T1, Biotin-FcγRIIB; test: FACS sorting of displayed Fc library on biotin-FcγRIIB, NGS; reference S298R
Biotin-FcγRIIB [16] = molecular target: T1, Biotin-FcγRIIB; test: FACS sorting of displayed Fc library on biotin-FcγRIIB, NGS; reference P271G
Biotin-FcγRIIB [17] = molecular target: T1, Biotin-FcγRIIB; test: FACS sorting of displayed Fc library on biotin-FcγRIIB, NGS; reference P271C
Biotin-FcγRIIB [18] = molecular target: T1, Biotin-FcγRIIB; test: FACS sorting of displayed Fc library on biotin-FcγRIIB, NGS; reference S267E
Biotin-FcγRIIB [19] = molecular target: T2, Biotin-FcγRIIB (human, UniProt P31994 43-217, limits assumed, biotin label); test: NGS of 3T3 display library IgG2_C02 flow-sorted for FcγRIIB binding
T2 construct: Soluble labelled protein used to stain and sort the display cells; also called human FcγRIIB; CD32b
T2 sequence (looked up): T1 sequence (looked up)
Source text: Then flow cytometry is used for sorting the cells with high affinity to FcγRIIB for two to three rounds. […] IgG2_C01 is a combined mutation (Type I) library having at most 1 mutation in each of the four regions of P233-V240, V266-P271, S298-T299, and G327-I332; IgG2_C02 is a cell library made by combining the combined mutation (Type II) libraries of four regions of P233-V240, V266-P271, S298-T299 and G327-I332 together and transferring it into 3T3 cells.

human IgG2 anti-mouse CD40 surface displayed antibody, P271G/G236V
Enrichment factor (percentage after sorting/percentage before sorting) [1]: 10.3 | Increased factor (enrichment factor/wild-type enrichment factor) [1]: 13.7

human IgG2 anti-mouse CD40 surface displayed antibody (wild-type IgG2 Fc)
Enrichment factor (percentage after sorting/percentage before sorting) (Biotin-FcγRIIB (human) [2]): 0.83 | Percentage after sorting/unbinding percentage (Biotin-FcγRIIB (human) [2]): 0.58 | Percentage before sorting/unbinding percentage (Biotin-FcγRIIB (human) [2]): 0.7 | Enrichment factor (percentage after sorting/percentage before sorting) (Biotin-FcγRIIB (human) [3]): 0.88 | Percentage after sorting/unbinding percentage (Biotin-FcγRIIB (human) [3]): 0.85 | Percentage before sorting/unbinding percentage (Biotin-FcγRIIB (human) [3]): 0.97 | Enrichment factor (percentage after sorting/percentage before sorting) (Biotin-FcγRIIB (human) [4]): 1.13 | Percentage after sorting/unbinding percentage (Biotin-FcγRIIB (human) [4]): 1.06 | Percentage before sorting/unbinding percentage (Biotin-FcγRIIB (human) [4]): 0.94 | Enrichment factor (percentage after sorting/percentage before sorting) (Biotin-FcγRIIB (human) [5]): 0.94 | Percentage after sorting/unbinding percentage (Biotin-FcγRIIB (human) [5]): 0.95 | Percentage before sorting/unbinding percentage (Biotin-FcγRIIB (human) [5]): 1.01

human IgG2 anti-mouse CD40 surface displayed antibody, Fc mutant S298A
Enrichment factor (percentage after sorting/percentage before sorting) (Biotin-FcγRIIB (human) [6]): 0.92

human IgG2 anti-mouse CD40 surface displayed antibody, wild-type Fc
percentage after 1st sorting (Biotin-FcγRIIB (human) [7]): 2.51% | percentage after 2nd sorting (Biotin-FcγRIIB (human) [7]): 5.25% | percentage after 3rd sorting (Biotin-FcγRIIB (human) [7]): 12.6% | percentage before sorting (Biotin-FcγRIIB (human) [7]): 8.97% | percentage after 1st sorting (Biotin-FcγRIIB (human) [8]): 1.32% | percentage after 2nd sorting (Biotin-FcγRIIB (human) [8]): 1.03% | percentage after 3rd sorting (Biotin-FcγRIIB (human) [8]): 0.4% | percentage before sorting (Biotin-FcγRIIB (human) [8]): 1.07% | percentage after 1st sorting (Biotin-FcγRIIB (human) [9]): 61.6% | percentage after 2nd sorting (Biotin-FcγRIIB (human) [9]): 54.2% | percentage before sorting (Biotin-FcγRIIB (human) [9]): 63.8% | percentage after 1st sorting (Biotin-FcγRIIB (human) [10]): 58.4% | percentage after 2nd sorting (Biotin-FcγRIIB (human) [10]): 47.8% | percentage before sorting (Biotin-FcγRIIB (human) [10]): 56.6%

human IgG2 anti-mouse CD40 surface displayed antibody, Fc mutant G236D
Enrichment factor (percentage after sorting/percentage before sorting) (Biotin-FcγRIIB (human) [6]): 0.84

human IgG2 anti-mouse CD40 surface displayed antibody, Fc mutant P271G/G236V
Enrichment factor (after/before sorting) (Biotin-FcγRIIB (human) [11]): 10.3 | Increased factor a (enrichment factor/wild-type enrichment factor) (Biotin-FcγRIIB (human) [11]): 13.7 | Increased factor 2 c Site 2 (combined/point mutation) (Biotin-FcγRIIB (human) [12]): 30.5 | Increased factor 2 c Site 1 (combined/point mutation) (Biotin-FcγRIIB (human) [13]): 2.9

B1: human IgG2 anti-mouse CD40 surface displayed antibody, Fc mutant P271A/S298R (antibody, name in EU numbering)
light chain (with the P2A rest): DTVLTQSPALAVSPGERVTISCRASDSVSTLMHWYQQKPGQQPKLLIYLASHLESGVPARFSGSGSGTDFTLTIDPVEADDTATYYCQQSWNDPWTFGGGTKLELKRTVAAPSVFIFPPSDEQLKSGTASVVCLLNNFYPREAKVQWKVDNALQSGNSQESVTEQDSKDSTYSLSSTLTLSKADYEKHKVYACEVTHQGLSSPVTKSFNRGECGSGATNFSLLKQAGDVEENPG
heavy chain: EVQLVESDGGLVQPGRSLKLPCAASGFTFSDYYMAWVRQAPTKGLEWVASISYDGSSTYYRDSVKGRFTISRDNAKSTLYLQMDSLRSEDTATYYCGRHSSYFDYWGQGVMVTVSSASTKGPSVFPLAPCSRSTSESTAALGCLVKDYFPEPVTVSWNSGALTSGVHTFPAVLQSSGLYSLSSVVTVPSSNFGTQTYTCNVDHKPSNTKVDKTVERKCCVECPPCPAPPVAGPSVFLFPPKPKDTLMISRTPEVTCVVVDVSHEDAEVQFNWYVDGVEVHNAKTKPREEQFNRTFRVVSVLTVVHQDWLNGKEYKCKVSNKGLPAPIEKTISKTKGQPREPQVYTLPPSREEMTKNQVSLTCLVKGFYPSDIAVEWESNGQPENNYKTTPPMLDSDGSFFLYSKLTVDKSRWQQGNVFSCSVMHEALHNHYTQKSLSLSPGKLEPPPSTVSNMATVAVLVVLGAAIVTGAVVAFVMKMRRRNTGGKGGDYALAPGSQTSDLSLPDCKVMVHDPHSLA
notes: as m1; positions are Eu numbers; copies: 2 + 2
Enrichment factor (after/before sorting) (Biotin-FcγRIIB [14]): 2.45 | Increased factor a (enrichment factor/wild-type enrichment factor) (Biotin-FcγRIIB [14]): 3.27 | Increased factor 2 c Site 2 (combined/point mutation) (Biotin-FcγRIIB [15]): 4.2

B2: human IgG2 anti-mouse CD40 surface displayed antibody, Fc mutant P271G/S298R (antibody, name in EU numbering)
light chain (with the P2A rest): B1 light chain (with the P2A rest)
heavy chain: B1 heavy chain with A266G
notes: as for B1
Enrichment factor (after/before sorting) (Biotin-FcγRIIB [14]): 16 | Increased factor a (enrichment factor/wild-type enrichment factor) (Biotin-FcγRIIB [14]): 21.4 | Increased factor 2 c Site 1 (combined/point mutation) (Biotin-FcγRIIB [16]): 4.5 | Increased factor 2 c Site 2 (combined/point mutation) (Biotin-FcγRIIB [15]): 27.4

B3: human IgG2 anti-mouse CD40 surface displayed antibody, Fc mutant S267A/P271C (antibody, name in EU numbering)
light chain (with the P2A rest): B1 light chain (with the P2A rest)
heavy chain: B1 heavy chain with S262A, A266C, R293S
notes: as for B1
Enrichment factor (after/before sorting) (Biotin-FcγRIIB [14]): 37.4 | Increased factor a (enrichment factor/wild-type enrichment factor) (Biotin-FcγRIIB [14]): 65.1 | Increased factor 2 c Site 2 (combined/point mutation) (Biotin-FcγRIIB [17]): 2.2

B4: human IgG2 anti-mouse CD40 surface displayed antibody, Fc mutant S267E/P271C (antibody, name in EU numbering)
light chain (with the P2A rest): B1 light chain (with the P2A rest)
heavy chain: B1 heavy chain with S262E, A266C, R293S
notes: as for B1
Enrichment factor (after/before sorting) (Biotin-FcγRIIB [14]): 1000 | Increased factor a (enrichment factor/wild-type enrichment factor) (Biotin-FcγRIIB [14]): 1740 | Increased factor 2 c Site 2 (combined/point mutation) (Biotin-FcγRIIB [17]): 58.4 | Increased factor 2 c Site 1 (combined/point mutation) (Biotin-FcγRIIB [18]): 61.2

B5: human IgG2 anti-mouse CD40 surface displayed antibody, Fc mutant S267E/S298R (antibody, name in EU numbering)
light chain (with the P2A rest): B1 light chain (with the P2A rest)
heavy chain: B1 heavy chain with S262E, A266P
notes: as for B1
Enrichment factor (after/before sorting) (Biotin-FcγRIIB [14]): 32.8 | Increased factor a (enrichment factor/wild-type enrichment factor) (Biotin-FcγRIIB [14]): 43.8 | Increased factor 2 c Site 1 (combined/point mutation) (Biotin-FcγRIIB [18]): 1.5 | Increased factor 2 c Site 2 (combined/point mutation) (Biotin-FcγRIIB [15]): 56.2

B6: human IgG2 anti-mouse CD40 surface displayed antibody, Fc mutant S267M/P271C (antibody, name in EU numbering)
light chain (with the P2A rest): B1 light chain (with the P2A rest)
heavy chain: B1 heavy chain with S262M, A266C, R293S
notes: as for B1
Enrichment factor (after/before sorting) (Biotin-FcγRIIB [14]): 32.1 | Increased factor a (enrichment factor/wild-type enrichment factor) (Biotin-FcγRIIB [14]): 56 | Increased factor 2 c Site 2 (combined/point mutation) (Biotin-FcγRIIB [17]): 1.9

B7: human IgG2 anti-mouse CD40 surface displayed antibody, Fc mutant V266A/P271C (antibody, name in EU numbering)
light chain (with the P2A rest): B1 light chain (with the P2A rest)
heavy chain: B1 heavy chain with V261A, A266C, R293S
notes: as for B1
Enrichment factor (after/before sorting) (Biotin-FcγRIIB [14]): 42.2 | Increased factor a (enrichment factor/wild-type enrichment factor) (Biotin-FcγRIIB [14]): 73.5 | Increased factor 2 c Site 2 (combined/point mutation) (Biotin-FcγRIIB [17]): 2.5

B8: human IgG2 anti-mouse CD40 surface displayed antibody, S267E/H268S/E269D (antibody, name in EU numbering)
light chain (with the P2A rest): B1 light chain (with the P2A rest)
heavy chain: B1 heavy chain with S262E, H263S, E264D, A266P, R293S
notes: As m1 with the Fc mutations
enrichment factor, percentage after 1st sorting/percentage before sorting (Biotin-FcγRIIB [19]): 80.5 ratio | enrichment factor, percentage after 2nd sorting/percentage after 1st sorting (Biotin-FcγRIIB [19]): 83.7 ratio | enrichment factor, percentage after 2nd sorting/percentage before sorting (Biotin-FcγRIIB [19]): 6730 ratio | increased factor, mutant enrichment factor/wild-type enrichment factor (Biotin-FcγRIIB [19]): 7970 ratio
